# Substitutions are numbered along the chain they refer to. “And” between values parts separate entries of the source, which are not always exact repeats. Identical values can stand only once. Like-named read-outs stand apart in the source and are kept apart here.
# B1: 1784F03 (designed binder)
# chain: MGVSDVPRDLEVVAATPTSLLISWRPPIHAYGYYRITYGETGGNSPVQEFTVPIVEGTATISGLKPGVDYTITVYAVEYTFKHSGYYHRPISINYRTEIDKPSQHHHHHH
# B2: 1813E02 (designed binder)
# chain: B1 chain with R25S, I28A, H29N, A30G, I54V, V55G, E56R, F81Y, H83G
# B3: 1922G04 (designed binder)
# chain: B1 chain with I28S, V55G, E56K, T80P, F81W, H83G
# notes: also called ATI001057; ATI-1057
# B4: 1923B02 (designed binder)
# chain: B1 chain with R25T, I28P, H29K, A30G, I54V, V55G, F81Y, K82N, H83G, S84A
# B5: 2011H05 (designed binder)
# chain: B1 chain with R25V, P27S, I28S, I54V, V55G, E56V, T80A, K82E, H83G, S84A
# notes: also called ATI001091
# B6: 2012A04 (designed binder)
# chain: B1 chain with I28S, H29N, A30G, Y31H, I54V, V55N, Y79F, T80P, H83W
# B7: ATI001174 (designed binder)
# chain: MGVSDVPRDLEVVAATPTSLLISWVPPSDDYGYYRITYGETGGNSPVQEFTVPIGKGTATISGLKPGVDYTITVYAVEFPWPHAGYYHRPISINYRTEIEKPCQ
# modifications: PEG on the cysteine of the C-terminal tail (EIEKPCQ)
# notes: also called ATI-1174; ATI1174
# B8: 1459D05 (designed binder)
# chain: B1 chain with R25P, I28S, A30G, I54P, V55G, E56K, T80P, F81Y
# notes: also called ATI000891; ATI-891
# B9: 1784F03 (designed binder)
# chain: B1 chain
# notes: Anti-PCSK9 Adnectin, His6-tagged
# B10: 1813E02 (designed binder)
# chain: B1 chain with R25S, I28A, H29N, A30G, I54V, V55G, E56R, F81Y, H83G
# notes: as for B9
# B11: 1923B02 (designed binder)
# chain: B1 chain with R25T, I28P, H29K, A30G, I54V, V55G, F81Y, K82N, H83G, S84A
# notes: as for B9
# B12: ATI001114 (designed binder)
# chain: MGVSDVPRDLEVVAATPTSLLISWVPPSDDYGYYRITYGETGGNSPVQEFTVPIGKGTATISGLKPGVDYTITVYAVEFPWPHAGYYHRPISINYRTGSGCHHHHHH
# modifications: 40 kDa two-branched PEG on the cysteine of the C-terminal tail (GSGC)
# notes: also called ATI1114
# B13: 2382D05 (designed binder)
# chain: MGVSDVPRDLEVVAATPTSLLISWDAPADGGYGYYRITYGETGGNSPVQEFTVPVSKGTATISGLKPGVDYTITVYAVEFDFPGAGYYHRPISINYRTEIDKPSQHHHHHH
# notes: Anti-PCSK9 Adnectin, His6-tagged; Same entry as 2451B06
# B14: 2451B06 (designed binder)
# chain: B13 chain
# notes: Anti-PCSK9 Adnectin, His6-tagged; also called 2451B06 (equivalent to 2382D05)
# B15: SABA3.1 (designed binder)
# chain: MGVSDVPRDLEVVAATPTSLLISWSNDGPGLSYYRITYGETGGNSPVQEFTVPSSQTTATISGLKPGVDYTITVYAVSYYTKKAYSAGPISINYRTEIDKPSQHHHHHH
# notes: also called clone 1245H07
# B16: SABA2.1 (designed binder)
# chain: MGVSDVPRDLEVVAATPTSLLISWPKYDKTGHYYRITYGETGGNSPVQEFTVPTRQTTATISGLKPGVDYTITVYAVSKDDYYPHEHRPISINYRTEIDKPSQHHHHHH
# B17: SABA3.1 (designed binder)
# chain: B15 chain
# notes: also called clone 1245H07
# B18: SABA4.1 (designed binder)
# chain: MGVSDVPRDLEMVAATPTSLLISWEDDSYYSRYYRITYGETGGNSPVQEFTVPSDLYTATISGLKPGVDYTITVYAVTYDVTDLIMHEPISINYRTEIDKPSQHHHHHH
# B19: SABA1.1 (designed binder)
# chain: MGVSDVPRDLEVVAATPTSLLISWHSYYEQNSYYRITYGETGGNSPVQEFTVPYSQTTATISGLKPGVDYTITVYAVYGSKYYYPISINYRTEIDKPSQHHHHHH
# notes: core 1 10Fn3 with His6; also called clone 1318H04
# How the values were obtained:
# [1] = biological target: T1, human PCSK9 (proprotein convertase subtilisin kexin type 9) (human, UniProt Q8NBP7 31-692); test: ITC, 37 C
# T1 construct: immobilized directly (ProteOn), biotinylated (Octet) or in solution, according to the assay; also called hPCSK9; PCSK9-AF647 (labelled form)
# [2] = biological target: T1, human PCSK9 (proprotein convertase …); test: cell-based or functional assay
# [3] = biological target: T1, human PCSK9 (proprotein convertase …); test: cell-based or functional assay; remark: listed apart in the source
# [4] = biological target: T1, human PCSK9 (proprotein convertase …); test: PCSK9:EGFA FRET, competitor EGFA peptide
# [5] = biological target: T1, human PCSK9 (proprotein convertase …); test: SPR (ProteOn), 25 C
# [6] = biological target: T2, Cynomolgus PCSK9 (cynomolgus monkey, UniProt A0A7N9D9N8 150-747); test: SPR (ProteOn), PCSK9 immobilized directly, 25 C
# T2 construct: also called cyno PCSK9; cPCSK9
# Description: (§1) The binding characteristics were characterized by Surface Plasmon Resonance (SPR). […] This allowed kinetic determination in the absence of regeneration. […] Evaluation of the kinetic parameters was performed using the Langmuir interaction model and constant parameter fitting with the ProteOn Manager software.
# [7] = biological target: T1, human PCSK9 (proprotein convertase …); test: PCSK9:EGFA FRET at 5 nM PCSK9, competitor EGFA peptide
# [8] = biological target: T3, human PCSK9 (proprotein convertase subtilisin kexin type 9) (human, UniProt Q8NBP7 31-692); test: SPR ProteOn, 25 C
# T3 construct: Directly immobilized (SPR ProteOn), biotinylated (BLI), or in solution, depending on the assay; also called hPCSK9
# Description: as §1
# [9] = biological target: T3, human PCSK9 (proprotein convertase …); test: BLI Octet Red, 37 C
# Description: Tips were then immersed into a buffer-only well for observation of Adnectin dissociation. Experiments were performed in a temperature controlled environment at either 25 or 37° C., and the oscillation speed was set at 1500 rpm.
# Binding interaction analysis was performed using proprietary software from Fortebio (Fortebio Data Analysis Software version 6.3.0.36). Global fits were performed for all samples, using a 1:1 binding model. The nature of these global fits constrained all values of concentration to a single pair of association and dissociation rates that were themselves constrained to each other. Affinities (KD), association and dissociation rates were averaged over the various loading levels used in the analysis.
# [10] = biological target: T3, human PCSK9 (proprotein convertase …); test: cell-based or functional assay; remark: listed apart in the source
# [11] = biological target: T3, human PCSK9 (proprotein convertase …); test: FRET, competitor ATI000972
# Text: (§2) Table 11 summarizes the overall data from these three FRET assays.
# [12] = biological target: T3, human PCSK9 (proprotein convertase …); test: FRET, competitor EGFA peptide
# Text: as §2
# [13] = biological target: cynomolgus monkey PCSK9 (cynomolgus monkey, UniProt A0A7N9D9N8 150-747); test: FRET, competitor EGFA peptide
# Text: as §2
# [14] = biological target: T3, human PCSK9 (proprotein convertase …); test: SPR ProteOn, PCSK9 immobilized, 25 C
# Description: as §1
# [15] = biological target: T3, human PCSK9 (proprotein convertase …); test: BLI, biotinylated hPCSK9 on sensor tips
# [16] = biological target: T3, human PCSK9 (proprotein convertase …); test: FRET direct binding, anti-his6 antibody
# Text: as §2
# [17] = biological target: T1, human PCSK9 (proprotein convertase …); test: PCSK9:ATI-972 FRET at 5 nM human PCSK9, competitor biotinylated ATI-972
# [18] = biological target: T4, cynomolgus monkey PCSK9 (cynomolgus monkey, UniProt A0A7N9D9N8 150-747); test: FRET, competitor EGFA peptide
# T4 construct: also called cyno PCSK9; cPCSK9
# Text: as §2
# [19] = biological target: T5, human serum albumin (human, UniProt P02768 25-609); test: SPR (Biacore), albumin captured on chip, SABA in flow
# T5 construct: also called HSA
# Description: (§3) The kinetics of selected SABA clones purified from HTPP and/or midscaled material described in Examples 5A and 5B were determined by capturing the respective serum albumin (HSA/RhSA/MuSA) on the surface of a Biasensor CMS chip and flowing a concentration series of SABAs over both the reference flow cell and the captured albumins. In addition, binding to albumin was carried out under various pH conditions ranging from pH 5.5 to pH 7.4.
# [20] = biological target: T6, rhesus serum albumin (rhesus, UniProt Q28522 17-600); test: as above
# T6 construct: also called RhSA
# Description: as §3
# [21] = biological target: T7, murine serum albumin (mouse, UniProt P07724 25-608); test: SPR, captured albumin
# T7 construct: also called MuSA; mouse serum albumin
# Description: as §3
binder,measurement,setting,value
B1,Kd,[1],3.8 nM
same,"DiI-LDL uptake in HepG2 cells, EC50",[2],210 nM
same,"EC50 (nM), PCSK9-induced LDLR depletion from HepG2 cell surface",[2],16 nM
same,percentage of PCSK9 inhibition at 75 nM,[2],150%
same,LDLR Depletion (% inhibition at 75 nM),[3],150%
same,LDLR Depletion EC50,[3],26 nM
same,EC50,[4],2 nM
B2,Kd,[1],< 2 nM
same,LDLR Depletion EC50,[3],16 nM
same,EC50,[4],1.3 nM
B3,Kd,[5],0.09 nM
same,LDLR Depletion (% inhibition at 75 nM),[3],105%
same,LDLR Depletion EC50,[3],10 nM
same,EC50,[4],1.2 nM
B4,Kd,[5],0.173 nM
same,LDLR Depletion (% inhibition at 75 nM),[3],178%
same,LDLR Depletion EC50,[3],23 nM
same,EC50,[4],2.3 nM
B5,"EC50 (nM), PCSK9-induced LDLR depletion from HepG2 cell surface",[2],8.85 nM
same,percentage of PCSK9 inhibition at 75 nM,[2],177%
same,Kd,[5],0.08 nM
same,LDLR Depletion (% inhibition at 75 nM),[3],198%
same,LDLR Depletion EC50,[3],12 nM
same,EC50,[4],2.7 nM
B6,"DiI-LDL uptake in HepG2 cells, EC50",[2],130 nM
same,"EC50 (nM), PCSK9-induced LDLR depletion from HepG2 cell surface",[2],7.78 nM
same,percentage of PCSK9 inhibition at 75 nM,[2],190%
same,Kd,[5],0.25 nM
same,LDLR Depletion (% inhibition at 75 nM),[3],144%
same,LDLR Depletion EC50,[3],12 nM
same,EC50,[4],2.1 nM
same,Kd,[6],24 nM
B7,"PCSK9-induced LDLR depletion in HepG2 cells, EC50",[2],8 nM
same,"inhibition of PCSK9-AF647 intracellular fluorescence in HepG2 cells, EC50",[2],10 nM
same,EC50,[7],1.9 nM
B8,Kd,[8],1.58 nM
same,Kd,[9],14.4 nM
same,LDLR Depletion EC50,[10],> 200 nM
same,IC50,[11],14 nM
same,EC50,[12],5.8 nM
same,IC50,[12],4 nM
same,EC50,[13],> 1000 nM
same,IC50,[13],2300 nM
same,Kd,[14],1.58 nM
same,koff,[14],0.00018 s⁻¹
same,kon,[14],113000 M⁻¹ s⁻¹
same,kon,[15],149000 M⁻¹ s⁻¹ and 108000 M⁻¹ s⁻¹
same,EC50,[16],3.9 nM
B9,LDLR Depletion EC50,[10],26 nM
same,IC50,[11],1.9 nM
same,EC50,[12],2.01 nM
same,IC50,[12],2 nM
same,EC50,[13],106 nM
same,IC50,[13],106 nM
same,EC50,[16],1.6 nM
B10,LDLR Depletion EC50,[10],16 nM
same,IC50,[11],2.4 nM
same,EC50,[12],2.7 nM
same,IC50,[12],1.3 nM
same,EC50,[13],118 nM
same,IC50,[13],118 nM
same,EC50,[16],2.3 nM
B11,Kd,[8],0.17 nM
same,LDLR Depletion EC50,[10],23 nM
same,IC50,[11],3.2 nM
same,EC50,[12],2.3 nM
same,IC50,[12],2.3 nM
same,EC50,[13],53.5 nM
same,EC50,[16],3.2 nM
B12,EC50,[17],0.8 nM
B13,Kd,[9],0.314 nM
same,EC50,[12],2.6 nM
same,EC50,[18],57.8 nM
same,Kd,[15],0.314 nM
same,koff,[15],0.000157 s⁻¹
same,kon,[15],505000 M⁻¹ s⁻¹
B14,EC50,[12],4.5 nM
same,EC50,[18],57.8 nM
B15,Kd,[19],863 nM
same,koff,[19],0.0682 s⁻¹
same,Kd,[20],431 nM
same,koff,[20],0.0337 s⁻¹
B16,binding result,[21],no binding
B17,binding result,[21],no binding
B18,binding result,[21],no binding
B19,binding result,[21],no binding

# Reference: patent publication US20120094909A1 (Bristol-Myers Squibb, published 2012)
